{
  "source": "paper PMC9481538",
  "about": "“The interaction between LC8 and LCA5 reveals a novel oligomerization function of LC8 in the ciliary-centrosome system” (Scientific Reports, 2022)",
  "binders": {"B1": {"name": "sLCA5-ΔVQT (domain or fragment, human (cDNA library from HEK293), UniProt Q86VQ0 96-430, looked up)", "chain": "DTDLVTKRILSARLLKINELQNEVSELQVKLAELLKENKSLKRLQYRQEKALNKFEDAENEISQLIFRHNNEITALKERLRKSQEKERATEKRVKDTESELFRTKFSLQKLKEISEARHLPERDDLAKKLVSAELKLDDTERRIKELSKNLELSTNSFQRQLLAERKRAYEAHDENKVLQKEVQRLYHKLKEKERELDIKNIYSNRLPKSSPNKEKELALRKNAACQSDFADLCTKGAAAMEDFKPEEYPLTPETIMCYENKWEEPGHLTLDLQSQKQDRHGEAGILNPIMEREEKFVTDEELHVVKQEVEKLEDEWEREELDKKQKEKASLLER", "notes": "position 333 worked out from the printed motif limits; Made by quick-change mutagenesis from sLCA5-WT; also called ΔVQT mutant; source: E. coli BL21 (DE3) Rosetta, purified (amylose resin, IMAC); clarified lysate for the pull-down; not shown: MBP, N-terminal, kept; His6, C-terminal, kept"}, "B2": {"name": "sLCA5-WT (LCA5 96-430 with N-terminal MBP and C-terminal 6xHis) (domain or fragment, human (cDNA library from HEK293), UniProt Q86VQ0 96-430, looked up)", "chain": "B1 chain with A238V, A239Q, A240T", "notes": "Monomer of the construct 84 kDa; also called wild-type LCA5 fragment; source: E. coli BL21 (DE3) Rosetta, purified (amylose resin, IMAC); clarified lysate for the pull-down; not shown: MBP, N-terminal, kept; His6, C-terminal, kept"}, "B3": {"name": "sLCA5-ΔCQS (domain or fragment, human (cDNA library from HEK293), UniProt Q86VQ0 96-430, looked up)", "chain": "B1 chain with C226A, Q227A, S228A, A238V, A239Q, A240T", "notes": "position 321 worked out from the printed motif limits; Made by quick-change mutagenesis from sLCA5-WT; also called ΔCQS mutant; source: E. coli BL21 (DE3) Rosetta, purified (amylose resin, IMAC); clarified lysate for the pull-down; not shown: MBP, N-terminal, kept; His6, C-terminal, kept"}, "B4": {"name": "FITC-labelled BMF (Bcl-2-modifying factor) peptide (TSQEDKATQTL) (peptide)", "peptide": "{FITC}-TSQEDKATQTL", "notes": "also called BMF peptide; fluorescein labeled BMF peptide"}},
  "key": {"[1]": {"biological_target": "T1, Dynein light chain LC8 (DYNLL2), 6xHis-tagged (UniProt Q96FJ2 1-89)", "T1 construct": "Dynein light chain LC8 (DYNLL2), an 89-residue protein; pEV vector with N-terminal 6xHis-tag; The calculated dimer mass of 20.7 kDa fits the untagged protein, so the His tag may have been removed; source: E. coli BL21 (DE3) Rosetta, purified (Ni IMAC, anion exchange on HiTrap Q-HP, SEC on Superdex 75)", "T1 sequence (Q96FJ2 whole entry, looked up, the tested form may be a part)": "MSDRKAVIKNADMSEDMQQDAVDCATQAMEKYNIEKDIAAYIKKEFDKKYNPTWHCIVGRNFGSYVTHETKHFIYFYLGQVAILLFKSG", "test": "ITC; MBP-fused LCA5 construct in the cell, LC8 injected, 37 injections of 1 μl; 37 °C, PBS pH 7.4, 1 mM TCEP", "details": "both partners purified"}, "[2]": {"biological_target": "the molecule itself", "test": "SEC; Superose 6 Increase 10/300, DPBS with 200 μM TCEP; LC8 or sLCA5-WT alone; masses estimated from a calibration curve"}, "[3]": {"biological_target": "T1, Dynein light chain LC8 (DYNLL2), …", "test": "fluorescence polarisation; competitive: 50 nM FITC-BMF peptide with LC8 at 80% saturation (12 μM), titrated with LCA5 peptide from 500 μM in two-fold dilutions; 25 °C, PBS, 2 mM TCEP, 0.05% Brij; triplicates", "details": "both partners purified"}},
  "note": "Substitutions are numbered along the chain they refer to. Where no end group is shown, it is not given here. The star is where a group is joined. FITC = O=C1OC2(c3ccc(O)cc3Oc3cc(O)ccc32)c2ccc(NC(=S)*)cc21",
  "data": [
    {"binder": "B1", "values": [
      {"measurement": "Kd", "setting": "[1]", "value": "1220 ± 80", "unit": "nM"}
    ]},
    {"binder": "B2", "values": [
      {"measurement": "Kd", "setting": "[1]", "value": "760 ± 60", "unit": "nM"},
      {"measurement": "stoichiometry N", "setting": "[2]", "value": "~4"}
    ]},
    {"binder": "B3", "values": [
      {"measurement": "Kd", "setting": "[1]", "value": "680 ± 80", "unit": "nM"}
    ]},
    {"binder": "B4", "values": [
      {"measurement": "binding result", "setting": "[3]", "value": "binds"}
    ]}
  ]
}
